Results as given in paper PMC7596504, “Molecular mechanism of the MORC4 ATPase activation” (Nature Communications, 2020).

Assays:
[1] = test system: Gal4 DNA-binding domain; assay: FRET; conditions: EMSA DNA: 20 mM Tris-HCl pH 7.5, 150 mM NaCl, 2.5 mM MgCl2, 2 mM DTT, on ice, EMSA NCP: 25 mM Tris-HCl pH 7.5, 75 mM NaCl, 0.005% Tween 20, 10% glycerol, 4 C …
[2] = test system: MORC4 ATPase domain (Homo sapiens); assay: fluorescence polarization; conditions: EMSA DNA: 20 mM Tris-HCl pH 7.5, 150 mM NaCl, 2.5 mM MgCl2, 2 mM DTT, on ice; EMSA NCP: 25 mM Tris-HCl pH 7.5, 75 mM NaCl, 0.005% Tween 20, 10% glycerol, 4 C …
[3] = test system: MORC4 ATPaseCW (Homo sapiens); assay: fluorescence polarization; conditions: EMSA DNA: 20 mM Tris-HCl pH 7.5, 150 mM NaCl, 2.5 mM MgCl2, 2 mM DTT, on ice; EMSA NCP: 25 mM Tris-HCl pH 7.5, 75 mM NaCl, 0.005% Tween 20, 10% glycerol, 4 C …
[4] = test system: LexA; assay: FRET; conditions: EMSA DNA: 20 mM Tris-HCl pH 7.5, 150 mM NaCl, 2.5 mM MgCl2, 2 mM DTT, on ice, EMSA NCP: 25 mM Tris-HCl pH 7.5, 75 mM NaCl, 0.005% Tween 20, 10% glycerol, 4 C …

In the case of NCP252 Gal4, the K half ([1]; no MORC4) is reported as 20 nM, the K half ([1]; saturating MORC4 ATPaseCW, 0.3 mM ATP) is reported as 100 nM and the K half ([1]; saturating MORC4 ATPaseCW, no ATP) is reported as 40 nM.

NCP207 gave a K half [2] of 500 nM and a K half [3] of 200 nM.

In the case of NCP147, the K half [2] is reported as 2300 nM and the K half [3] is reported as 400 nM.

NCP147 LexA showed a K half ([4]; 1 uM MORC4 ATPaseCW) of 2400 nM and a K half ([4]; no MORC4) of 900 nM.
